Experimental data reported in patent US20260250398A1.

Biological target: FZD1/2/4/5/7/8
Experiment: cell-based or functional assay

Row | TOPFLASH % Wnt Maxima | TOPFLASH EC50 | TOPFLASH Maximal Signal (% Wnt3a maxima) (% Wnt3a maxima) | Binder
1 | 52 % Wnt Maxima | 300 pM | – | CM0126 (FZD Diabody-Fc-LRP Diabody; paratopes 5016; 2539, 2542) (bispecific antibody) chain 1: MNLLLILTFVAAAVAEFEVQLVESGGGLVQPGGSLRLSCAASGFNIHSSSIHWVRQAPGKGLEWVAATYSSFGSITYADSVKGRFTISADTSKNTAYLQMNSLRAEDTAVYYCARYHHPFGYALDYWGQGTLVTVSSGGGGSDIQMTQSPSSLSASVGDRVTITCRASQSVSSAVAWYQQKPGKAPKLLIYSASSLYSGVPSRFSGSRSGTDFTLTISSLQPEDFATYYCQQGVYLFTFGQGTKVEIKLEDKTHTKVEPKSSDKTHNCPPCPAPELLGGPSVFLFPPKPKDTLMISRTPEVTCVVVDVSHEDPEVKFNWYVDGVEVHNAKTKPREEQYNSTYRVVSVLTVLHQDWLNGKEYKCKVSNKALPAPIEKTISKAKGQPREPQVYTLPPIRELMTSNQVSLSCAVKGFYPSDIAVEWESNGQPENNYKTTPPVLDSDGSFFLVSKLTVDKSRWQQGNVFSCSVMHEALHNHYTQKSLSLSPGKSGSETPGTSESATPESGGGEVQLVESGGGLVQPGGSLRLSCAASGFNISSYYIHWVRQAPGKGLEWVASIYSSYGYTSYADSVKGRFTISADTSKNTAYLQMNSLRAEDTAVYYCARTVRGSKKPYFSGWAMDYWGQGTLVTVSSGGGGSDIQMTQSPSSLSASVGDRVTITCRASQSVSSAVAWYQQKPGKAPKLLIYSASSLYSGVPSRFSGSRSGTDFTLTISSLQPEDFATYYCQQYSWGPFTFGQGTKVEIK chain 2: MNLLLILTFVAAAVAEFEVQLVESGGGLVQPGGSLRLSCAASGFNIHSSSIHWVRQAPGKGLEWVAATYSSFGSITYADSVKGRFTISADTSKNTAYLQMNSLRAEDTAVYYCARYHHPFGYALDYWGQGTLVTVSSGGGGSDIQMTQSPSSLSASVGDRVTITCRASQSVSSAVAWYQQKPGKAPKLLIYSASSLYSGVPSRFSGSRSGTDFTLTISSLQPEDFATYYCQQGVYLFTFGQGTKVEIKLEDKTHTKVEPKTSDKTHTCPPCPAPELLGGPSVFLFPPKPKDTLMISRTPEVTCVVVDVSHEDPEVKFNWYVDGVEVHNAKTKPREEQYNSTYRVVSVLTVLHQDWLNGKEYKCKVSNKALPAPIEKTISKAKGQPREPMVFDLPPSREEMTKNQVSLWCMVKGFYPSDIAVEWESNGQPENNYKTTPPVLDSDGSFFLYSKLTVDKSRWQQGNVFSCSVMHEALHNHYTQKSLSLSPGKSGSETPGTSESATPESGGGEVQLVESGGGLVQPGGSLRLSCAASGFNISYSSIHWVRQAPGKGLEWVAYISSYYGYTYYADSVKGRFTISADTSKNTAYLQMNSLRAEDTAVYYCARAHYFPWAGAMDYWGQGTLVTVSSGGGGSDIQMTQSPSSLSASVGDRVTITCRASQSVSSAVAWYQQKPGKAPKLLIYSASSLYSGVPSRFSGSRSGTDFTLTISSLQPEDFATYYCQQYYWPITFGQGTKVEIK
2 | 57 % Wnt Maxima | 300 pM | – | CT0001 (FZD IgG-LRP Diabody; paratopes 5016; 2539, 2542) (bispecific antibody) heavy 1: EVQLVESGGGLVQPGGSLRLSCAASGFNIHSSSIHWVRQAPGKGLEWVAATYSSFGSITYADSVKGRFTISADTSKNTAYLQMNSLRAEDTAVYYCARYHHPFGYALDYWGQGTLVTVSSASTKGPSVFPLAPSSKSTSGGTAALGCLVKDYFPEPVTVSWNSGALTSGVHTFPAVLQSSGLYSLSSVVTVPSSSLGTQTYICNVNHKPSNTKVDKKVEPKSCDKTHTCPPCPAPELLGGPSVFLFPPKPKDTLMISRTPEVTCVVVDVSHEDPEVKFNWYVDGVEVHNAKTKPREEQYNSTYRVVSVLTVLHQDWLNGKEYKCKVSNKALPAPIEKTISKAKGQPREPQVYTLPPIRELMTSNQVSLSCAVKGFYPSDIAVEWESNGQPENNYKTTPPVLDSDGSFFLVSKLTVDKSRWQQGNVFSCSVMHEALHNHYTQKSLSLSPGKSGSETPGTSESATPESGGGEVQLVESGGGLVQPGGSLRLSCAASGFNISSYYIHWVRQAPGKGLEWVASIYSSYGYTSYADSVKGRFTISADTSKNTAYLQMNSLRAEDTAVYYCARTVRGSKKPYFSGWAMDYWGQGTLVTVSSGGGGSDIQMTQSPSSLSASVGDRVTITCRASQSVSSAVAWYQQKPGKAPKLLIYSASSLYSGVPSRFSGSRSGTDFTLTISSLQPEDFATYYCQQYSWGPFTFGQGTKVEIK heavy 2: EVQLVESGGGLVQPGGSLRLSCAASGFNIHSSSIHWVRQAPGKGLEWVAATYSSFGSITYADSVKGRFTISADTSKNTAYLQMNSLRAEDTAVYYCARYHHPFGYALDYWGQGTLVTVSSASTKGPSVFPLAPSSKSTSGGTAALGCLVKDYFPEPVTVSWNSGALTSGVHTFPAVLQSSGLYSLSSVVTVPSSSLGTQTYICNVNHKPSNTKVDKKVEPKSCDKTHTCPPCPAPELLGGPSVFLFPPKPKDTLMISRTPEVTCVVVDVSHEDPEVKFNWYVDGVEVHNAKTKPREEQYNSTYRVVSVLTVLHQDWLNGKEYKCKVSNKALPAPIEKTISKAKGQPREPMVFDLPPSREEMTKNQVSLWCMVKGFYPSDIAVEWESNGQPENNYKTTPPVLDSDGSFFLYSKLTVDKSRWQQGNVFSCSVMHEALHNHYTQKSLSLSPGKSGSETPGTSESATPESGGGEVQLVESGGGLVQPGGSLRLSCAASGFNISYSSIHWVRQAPGKGLEWVAYISSYYGYTYYADSVKGRFTISADTSKNTAYLQMNSLRAEDTAVYYCARAHYFPWAGAMDYWGQGTLVTVSSGGGGSDIQMTQSPSSLSASVGDRVTITCRASQSVSSAVAWYQQKPGKAPKLLIYSASSLYSGVPSRFSGSRSGTDFTLTISSLQPEDFATYYCQQYYWPITFGQGTKVEIK light: DIQMTQSPSSLSASVGDRVTITCRASQSVSSAVAWYQQKPGKAPKLLIYSASSLYSGVPSRFSGSRSGTDFTLTISSLQPEDFATYYCQQGVYLFTFGQGTKVEIKRTVAAPSVFIFPPSDEQLKSGTASVVCLLNNFYPREAKVQWKVDNALQSGNSQESVTEQDSKDSTYSLSSTLTLSKADYEKHKVYACEVTHQGLSSPVTKSFNRGEC

Continued, binder first:

Row | Binder | TOPFLASH % Wnt Maxima | TOPFLASH EC50 | TOPFLASH Maximal Signal (% Wnt3a maxima) (% Wnt3a maxima)
3 | CM0011 (FZD Diabody-Fc-LRP Diabody; paratopes 5019; 2539, 2542) (bispecific antibody) chain 1: MNLLLILTFVAAAVAEFEVQLVESGGGLVQPGGSLRLSCAASGFNIGSSSIHWVRQAPGKGLEWVASIYSAFASTSYADSVKGRFTISADTSKNTAYLQMNSLRAEDTAVYYCARYHFPFGFALDYWGQGTLVTVSSGGGGSDIQMTQSPSSLSASVGDRVTITCRASQSVSSAVAWYQQKPGKAPKLLIYSASSLYSGVPSRFSGSRSGTDFTLTISSLQPEDFATYYCQQGVYLFTFGQGTKVEIKLEDKTHTKVEPKSSDKTHNCPPCPAPELLGGPSVFLFPPKPKDTLMISRTPEVTCVVVDVSHEDPEVKFNWYVDGVEVHNAKTKPREEQYNSTYRVVSVLTVLHQDWLNGKEYKCKVSNKALPAPIEKTISKAKGQPREPQVYTLPPIRELMTSNQVSLSCAVKGFYPSDIAVEWESNGQPENNYKTTPPVLDSDGSFFLVSKLTVDKSRWQQGNVFSCSVMHEALHNHYTQKSLSLSPGKSGSETPGTSESATPESGGGEVQLVESGGGLVQPGGSLRLSCAASGFNISSYYIHWVRQAPGKGLEWVASIYSSYGYTSYADSVKGRFTISADTSKNTAYLQMNSLRAEDTAVYYCARTVRGSKKPYFSGWAMDYWGQGTLVTVSSGGGGSDIQMTQSPSSLSASVGDRVTITCRASQSVSSAVAWYQQKPGKAPKLLIYSASSLYSGVPSRFSGSRSGTDFTLTISSLQPEDFATYYCQQYSWGPFTFGQGTKVEIK chain 2: MNLLLILTFVAAAVAEFEVQLVESGGGLVQPGGSLRLSCAASGFNIGSSSIHWVRQAPGKGLEWVASIYSAFASTSYADSVKGRFTISADTSKNTAYLQMNSLRAEDTAVYYCARYHFPFGFALDYWGQGTLVTVSSGGGGSDIQMTQSPSSLSASVGDRVTITCRASQSVSSAVAWYQQKPGKAPKLLIYSASSLYSGVPSRFSGSRSGTDFTLTISSLQPEDFATYYCQQGVYLFTFGQGTKVEIKLEDKTHTKVEPKTSDKTHTCPPCPAPELLGGPSVFLFPPKPKDTLMISRTPEVTCVVVDVSHEDPEVKFNWYVDGVEVHNAKTKPREEQYNSTYRVVSVLTVLHQDWLNGKEYKCKVSNKALPAPIEKTISKAKGQPREPMVFDLPPSREEMTKNQVSLWCMVKGFYPSDIAVEWESNGQPENNYKTTPPVLDSDGSFFLYSKLTVDKSRWQQGNVFSCSVMHEALHNHYTQKSLSLSPGKSGSETPGTSESATPESGGGEVQLVESGGGLVQPGGSLRLSCAASGFNISYSSIHWVRQAPGKGLEWVAYISSYYGYTYYADSVKGRFTISADTSKNTAYLQMNSLRAEDTAVYYCARAHYFPWAGAMDYWGQGTLVTVSSGGGGSDIQMTQSPSSLSASVGDRVTITCRASQSVSSAVAWYQQKPGKAPKLLIYSASSLYSGVPSRFSGSRSGTDFTLTISSLQPEDFATYYCQQYYWPITFGQGTKVEIK | 63 % Wnt Maxima | 300 pM | –
4 | ANT-1 (LRP Diabody-Fc-FZD Fab; paratopes 2540, 2542; 5016) (bispecific antibody) heavy 1: MNLLLILTFVAAAVAEFEVQLVESGGGLVQPGGSLRLSCAASGFNISSYYIHWVRQAPGKGLEWVASIYSSYGYTSYADSVKGRFTISADTSKNTAYLQMNSLRAEDTAVYYCARTVRGSKKPYFSGWAMDYWGQGTLVTVSSGGGGSDIQMTQSPSSLSASVGDRVTITCRASQSVSSAVAWYQQKPGKAPKLLIYSASSLYSGVPSRFSGSRSGTDFTLTISSLQPEDFATYYCQQYYFLITFGQGTKVEIKLEDKTHTKVEPKSSDKTHNCPPCPAPELLGGPSVFLFPPKPKDTLMISRTPEVTCVVVDVSHEDPEVKFNWYVDGVEVHNAKTKPREEQYNSTYRVVSVLTVLHQDWLNGKEYKCKVSNKALPAPIEKTISKAKGQPREPQVYTLPPIRELMTSNQVSLSCAVKGFYPSDIAVEWESNGQPENNYKTTPPVLDSDGSFFLVSKLTVDKSRWQQGNVFSCSVMHEALHNHYTQKSLSLSPGKSGSETPGTSESATPESGGGEVQLVESGGGLVQPGGSLRLSCAASGFNIHSSSIHWVRQAPGKGLEWVAATYSSFGSITYADSVKGRFTISADTSKNTAYLQMNSLRAEDTAVYYCARYHHPFGYALDYWGQGTLVTVSSASTKGPSVFPLAPSSKSTSGGTAALGCLVKDYFPEPVTVSWNSGALTSGVHTFPAVLQSSGLYSLSSVVTVPSSSLGTQTYICNVNHKPSNTKVDKKVEPKSCDKTHT heavy 2: MNLLLILTFVAAAVAEFEVQLVESGGGLVQPGGSLRLSCAASGFNISYSSIHWVRQAPGKGLEWVASISPYYGYTYYADSVKGRFTISADTSKNTAYLQMNSLRAEDTAVYYCARSSYFPWFSAMDYWGQGTLVTVSSGGGGSDIQMTQSPSSLSASVGDRVTITCRASQSVSSAVAWYQQKPGKAPKLLIYSASSLYSGVPSRFSGSRSGTDFTLTISSLQPEDFATYYCQQYYWPITFGQGTKVEIKLEDKTHTKVEPKTSDKTHTCPPCPAPELLGGPSVFLFPPKPKDTLMISRTPEVTCVVVDVSHEDPEVKFNWYVDGVEVHNAKTKPREEQYNSTYRVVSVLTVLHQDWLNGKEYKCKVSNKALPAPIEKTISKAKGQPREPMVFDLPPSREEMTKNQVSLWCMVKGFYPSDIAVEWESNGQPENNYKTTPPVLDSDGSFFLYSKLTVDKSRWQQGNVFSCSVMHEALHNHYTQKSLSLSPGKSGSETPGTSESATPESGGGEVQLVESGGGLVQPGGSLRLSCAASGFNIHSSSIHWVRQAPGKGLEWVAATYSSFGSITYADSVKGRFTISADTSKNTAYLQMNSLRAEDTAVYYCARYHHPFGYALDYWGQGTLVTVSSASTKGPSVFPLAPSSKSTSGGTAALGCLVKDYFPEPVTVSWNSGALTSGVHTFPAVLQSSGLYSLSSVVTVPSSSLGTQTYICNVNHKPSNTKVDKKVEPKSCDKTHT light: DIQMTQSPSSLSASVGDRVTITCRASQSVSSAVAWYQQKPGKAPKLLIYSASSLYSGVPSRFSGSRSGTDFTLTISSLQPEDFATYYCQQGVYLFTFGQGTKVEIKRTVAAPSVFIFPPSDEQLKSGTASVVCLLNNFYPREAKVQWKVDNALQSGNSQESVTEQDSKDSTYSLSSTLTLSKADYEKHKVYACEVTHQGLSSPVTKSFNRGEC | 49 % Wnt Maxima | 700 pM | 50
